T1: N-cadherin (UniProt P19022 160-906, limits assumed)
T1 construct: whole, on cells
T1 sequence (looked up): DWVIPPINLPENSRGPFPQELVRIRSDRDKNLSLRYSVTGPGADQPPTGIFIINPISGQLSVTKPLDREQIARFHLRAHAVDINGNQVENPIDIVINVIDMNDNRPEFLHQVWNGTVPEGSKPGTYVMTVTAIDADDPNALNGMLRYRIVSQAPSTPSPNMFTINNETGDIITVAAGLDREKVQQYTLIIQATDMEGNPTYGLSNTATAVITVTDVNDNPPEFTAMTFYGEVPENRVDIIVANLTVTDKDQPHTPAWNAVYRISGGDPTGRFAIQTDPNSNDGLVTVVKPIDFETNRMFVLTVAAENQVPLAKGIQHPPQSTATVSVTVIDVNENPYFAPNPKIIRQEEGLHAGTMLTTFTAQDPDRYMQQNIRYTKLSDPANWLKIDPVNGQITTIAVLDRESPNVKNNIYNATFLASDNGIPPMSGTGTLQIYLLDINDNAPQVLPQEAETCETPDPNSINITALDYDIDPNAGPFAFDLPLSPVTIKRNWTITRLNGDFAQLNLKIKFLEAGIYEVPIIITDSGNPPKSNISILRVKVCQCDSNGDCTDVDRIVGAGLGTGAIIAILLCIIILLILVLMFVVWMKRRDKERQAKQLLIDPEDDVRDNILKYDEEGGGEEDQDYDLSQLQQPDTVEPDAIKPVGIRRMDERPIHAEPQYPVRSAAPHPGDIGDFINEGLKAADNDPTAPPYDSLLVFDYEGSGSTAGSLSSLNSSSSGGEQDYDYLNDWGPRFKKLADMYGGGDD


Columns and labels:
LDLR = target: T2, LDLR (UniProt P01130 22-860, limits assumed); assay: immunofluorescence co-localization on cells
T2 construct: whole, on cells

N-cadherin = target: T1, N-cadherin; assay: immunofluorescence co-localization on cells
[1] = target: T3, EGFR extracellular domain (with an amino acid sequence of 25-645) (human, UniProt P00533 25-645); assay: SPR, Biacore T200; EGFR extracellular domain on CM5 chip
T3 construct: range 25-645; Coupled on a CM5 chip; also called epidermal growth factor receptor extracellular domain; ligand (on the chip)

[2] = target: T3, EGFR extracellular domain (with an …); assay: SPR, Biacore T200; EGFR extracellular domain on CM5 chip, rLZ-8 protein as analyte
[3] = target: T3, EGFR extracellular domain (with an …); assay: EGFR affinity test (SPR)

T2 sequence (P01130 22-860 limits assumed): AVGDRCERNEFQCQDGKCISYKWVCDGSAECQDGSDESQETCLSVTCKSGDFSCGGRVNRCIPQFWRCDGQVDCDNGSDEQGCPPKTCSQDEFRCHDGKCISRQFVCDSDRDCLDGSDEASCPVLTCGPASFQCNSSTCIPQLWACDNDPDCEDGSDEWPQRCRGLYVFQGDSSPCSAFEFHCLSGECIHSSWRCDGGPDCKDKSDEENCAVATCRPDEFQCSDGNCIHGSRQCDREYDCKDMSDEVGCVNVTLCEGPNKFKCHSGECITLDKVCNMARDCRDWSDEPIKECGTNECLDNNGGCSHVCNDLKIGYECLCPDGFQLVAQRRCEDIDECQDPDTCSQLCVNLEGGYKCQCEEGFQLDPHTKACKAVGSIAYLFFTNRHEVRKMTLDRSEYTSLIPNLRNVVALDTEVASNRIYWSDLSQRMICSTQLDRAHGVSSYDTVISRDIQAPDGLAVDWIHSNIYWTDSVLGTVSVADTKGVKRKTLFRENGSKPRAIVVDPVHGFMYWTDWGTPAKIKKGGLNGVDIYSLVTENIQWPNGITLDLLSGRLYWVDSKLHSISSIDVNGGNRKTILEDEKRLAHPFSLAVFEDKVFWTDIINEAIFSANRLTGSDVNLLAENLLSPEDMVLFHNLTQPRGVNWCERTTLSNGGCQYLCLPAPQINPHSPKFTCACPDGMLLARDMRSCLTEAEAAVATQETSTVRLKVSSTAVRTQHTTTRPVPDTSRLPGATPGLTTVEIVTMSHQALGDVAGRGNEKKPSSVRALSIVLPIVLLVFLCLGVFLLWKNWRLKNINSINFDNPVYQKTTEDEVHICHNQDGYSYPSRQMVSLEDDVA

binding result (LDLR)	binding result (N-cadherin)	fold increase of affinity against rLZ-8 [1] [times]	Kd [2] [nM]	koff [2] [s⁻¹]	kon [2] [M⁻¹ s⁻¹]	fold increase of affinity equilibrium constant against rLZ-8 [3] [times]	Binder
no binding	no binding						recombinant immunoregulatory protein of Ganoderma lucidum (rLZ-8) (other, also called Lingzhi-8) MSDTALIFRLAWDVKKLSFDYTPNWGRGNPNNFIDTVTFPKVLTDKAYTYRVAVSGRNLGVKPSYAVESDGSQKVNFLEYNSGYGIADTNTIQVFVVDPDTNNDFIIAQWN
		6	1.53	0.000329	215000		rLZ-8 (L17K/D70K) (other, Surface potential mutant of rLZ-8) MSDTALIFRLAWDVKKKSFDYTPNWGRGNPNNFIDTVTFPKVLTDKAYTYRVAVSGRNLGVKPSYAVESKGSQKVNFLEYNSGYGIADTNTIQVFVVDPDTNNDFIIAQWN
			620	0.000743	1200		rLZ-8 (D45A) (other, Alanine mutant of rLZ-8) MSDTALIFRLAWDVKKLSFDYTPNWGRGNPNNFIDTVTFPKVLTAKAYTYRVAVSGRNLGVKPSYAVESDGSQKVNFLEYNSGYGIADTNTIQVFVVDPDTNNDFIIAQWN
			9.35	0.000614	65700		rLZ-8 (K46E/K74E) (other, Mutant of rLZ-8) MSDTALIFRLAWDVKKLSFDYTPNWGRGNPNNFIDTVTFPKVLTDEAYTYRVAVSGRNLGVKPSYAVESDGSQEVNFLEYNSGYGIADTNTIQVFVVDPDTNNDFIIAQWN
			1240	0.000273	220		rLZ-8 (K16A/K41A) (other, Alanine mutant of rLZ-8) MSDTALIFRLAWDVKALSFDYTPNWGRGNPNNFIDTVTFPAVLTDKAYTYRVAVSGRNLGVKPSYAVESDGSQKVNFLEYNSGYGIADTNTIQVFVVDPDTNNDFIIAQWN
			7.49	7.56e-05	10100		rLZ-8 (L17K) (other, Surface potential mutant of rLZ-8) MSDTALIFRLAWDVKKKSFDYTPNWGRGNPNNFIDTVTFPKVLTDKAYTYRVAVSGRNLGVKPSYAVESDGSQKVNFLEYNSGYGIADTNTIQVFVVDPDTNNDFIIAQWN
			30600	0.00423	139		rLZ-8 (K16A/S18A/K41A/D45A) (other, Alanine mutant of rLZ-8, made by the same fermentation and purification as rLZ-8) MSDTALIFRLAWDVKALAFDYTPNWGRGNPNNFIDTVTFPAVLTAKAYTYRVAVSGRNLGVKPSYAVESDGSQKVNFLEYNSGYGIADTNTIQVFVVDPDTNNDFIIAQWN
			8.63	0.000528	61200		rLZ-8 (R9A) (other, Alanine mutant of rLZ-8) MSDTALIFALAWDVKKLSFDYTPNWGRGNPNNFIDTVTFPKVLTDKAYTYRVAVSGRNLGVKPSYAVESDGSQKVNFLEYNSGYGIADTNTIQVFVVDPDTNNDFIIAQWN
			489	0.00182	3720		rLZ-8 (S18A) (other, Alanine mutant of rLZ-8) MSDTALIFRLAWDVKKLAFDYTPNWGRGNPNNFIDTVTFPKVLTDKAYTYRVAVSGRNLGVKPSYAVESDGSQKVNFLEYNSGYGIADTNTIQVFVVDPDTNNDFIIAQWN
			7.36	0.000432	58700		rLZ-8 (D20H) (other, Surface potential mutant of rLZ-8) MSDTALIFRLAWDVKKLSFHYTPNWGRGNPNNFIDTVTFPKVLTDKAYTYRVAVSGRNLGVKPSYAVESDGSQKVNFLEYNSGYGIADTNTIQVFVVDPDTNNDFIIAQWN
		2.3	2.25	0.000457	203000	4	rLZ-8 (D70K) (other, Surface potential mutant of rLZ-8) MSDTALIFRLAWDVKKLSFDYTPNWGRGNPNNFIDTVTFPKVLTDKAYTYRVAVSGRNLGVKPSYAVESKGSQKVNFLEYNSGYGIADTNTIQVFVVDPDTNNDFIIAQWN
			12.2	0.000431	35300		rLZ-8 (K41D/K46E/K74E) (other, Mutant of rLZ-8) MSDTALIFRLAWDVKKLSFDYTPNWGRGNPNNFIDTVTFPDVLTDEAYTYRVAVSGRNLGVKPSYAVESDGSQEVNFLEYNSGYGIADTNTIQVFVVDPDTNNDFIIAQWN

— patent US12077566 (dated 2024)
